We go through two molecules from patent publication US20110293511A1, “SPECIFIC BINDING PROTEINS AND USES THEREOF” (priority 2009, published 2011).

Data set [1] deals with T1, denatured soluble domain of the EGFR (sEGFR) (Homo sapiens, UniProt P00533).
T1 construct: sEGFR is the recombinant extracellular domain (amino acids 1-621) of the wild-type EGFR); host or cells: CHO cells
As to the kind of experiment: competition ELISA with biotinylated mAb806. It is filed as binding. The following applies: after unlabeled blocking antibody. The procedure: Briefly, the denatured soluble domain of the EGFR (sEGFR) was coated on to ELISA plates. The unlabeled 124 or 1133 antibodies were then added across the plate in increasing concentrations.

For another data set, the system named is xenograft U87MGΔEGFR. As to the kind of experiment: immunohistochemical analysis on xenograft tumors. It is filed as binding, human. Background: A xenograft is tissue or cells of one species grown in another, often human tumour cells in immunodeficient mice.
The test system of a further data set is xenograft A431. Kind of data set: immunohistochemical analysis on xenograft tumors. The format is binding, human. An excerpt: The murine fibroblast line NR6ΔEGFR was used as immunogen. Mouse hybridomas were generated by immunizing BALB/c mice five times subcutaneously at 2- to 3-week intervals, with 5×10^5-2×10^6 cells in adjuvant. Complete Freund's adjuvant was used for the first injection. Thereafter, incomplete Freund's adjuvant (Difco™, Voigt Global Distribution, Lawrence, Kans.) was used. Spleen cells from immunized mice were fused with mouse myeloma cell line SP2/0 (Shulman et al. (1978) Nature 276:269-270). Supernatants of newly generated clones were screened in hemadsorption assays for reactivity with cell line NR6, NR6wtEGFR, and NR6ΔEGFR and then analyzed by hemadsorption assays with human glioblastoma cell lines U87MG, U87MGwtEGFR, and U87ΔEGFR. Selected hybridoma supernatants were subsequently tested by western blotting and further analyzed by immunohistochemistry. Newly generated mAbs showing the expected reactivity pattern were purified.
Bound antibody was detected using the Dako Envision+ HRP detection system as per manufacturer's instructions. Sections were finally rinsed with water, counterstained with hematoxylin and mounted.

The next data set concerns A431 cells. As to the kind of experiment: ADCC assay. The format is cell-based, human. The following applies: 1 μg/mL; representative experiment.
In another data set the test system is A431 xenografts. As to the kind of experiment: s.c. xenograft therapy study. The format is in vivo, nude mice. The following applies: established; 6×1 mg IP. As to the method:
Tumor cells (3×10^6) in […] of PBS were inoculated subcutaneously into both flanks of 4-6 week old female nude mice (Animal Research Centre, Western Australia, Australia). […] Treatment was continued for a total of 6 doses, 3 times per week for 2 weeks. In the established model, treatment was started when tumors had reached a mean volume of 65±6.42 mm^3 (U87MG.Δ2-7), 84±9.07 mm3 (U87MG), 73±7.5 mm^3 (U87MG.wtEGFR) or 201±19.09 mm^3 (A431 tumors). Tumor volume in mm^3 was determined using the formula […], where length was the longest axis and width the measurement at right angles to the length (Clark et al. (2000) Therapeutic efficacy of anti-Lewis (y) humanized 3S 193 radioimmunotherapy in a breast cancer model: enhanced activity when combined with Taxol chemotherapy. Clin. Cancer Res. 6, 3621-3628). Data was expressed as mean tumor volume±S.E. for each treatment group. Statistical analysis was performed at given time points using Student's t-test. Animals were euthanized when the xenografts reached an approximate volume of 1.5 cm^3 and the tumors excised for histological examination. This research project was approved by the Animal Ethics Committee of the Austin and Repatriation Medical Centre.
AG1478 (4-(3-Chloroanilino)-6,7-dimethoxyquinazoline) is a potent and selective inhibitor of the EGFR kinase versus HER2-neu and platelet-derived growth factor receptor kinase (Calbiochem Cat. No. 658552). […] The results are illustrated in FIG. 12. […] 400 μg AG1478 was administered at 0, 2, 4, 7, 9, and 11 days post xenograft.
With respect to “(iv),” different groups of mice received either 0.5 mg/injection of each mAb, or 0.25 mg/injection of each mAb.
Finally, the fourth group of mice, which had been inoculated with A431 cells, received injections as in groups I and III, at 8, 10, 12 and 14 days after inoculation. At the start, the average tumor size was 71 mm^3.
To establish xenografts, mice were injected subcutaneously into the right and left inguinal mammary line with 1×10^6 A431 adenocarcinoma cells or 1×10^6 U87MG.de2-7 glioma cells in 100 μl of PBS. Tumor volume (TV) was calculated by the formula […] where length was the longest axis and width the measurement at right angles to length. […] Therapy was administered on days 6, 8, 11, 13, 15 and 18 for A431, and days 4, 6, 8, 11, 13 and 15 for the U87MG.de2-7 cell lines respectively. Mean±SEM tumor volumes until termination of the experiments due to ethical considerations of tumor burden are presented in FIG. 91 for the A431 xenograft until day 25, and in FIG. 92 for U87MG.de2-7 xenografts until day 31.

Experimental for A431 cells: PBMCs were isolated from healthy volunteer donor blood. Heparinized whole blood was fractionated by density centrifugation on Ficoll-Hypaque (ICN Biomedical Inc., Ohio, USA). PBMC fractions was collected and washed three times with RPMI^+ 1640 supplemented with 100 U/ml penicillin and 100 μg/ml streptomycin, 2 mM L-glutamine, containing 5% heat-inactivated FCS.
CDC and ADCC assays were performed by a modification of a previously published method (Nelson, D. L. et al. (1991) In: J. E. Colignan, A. M. Kruisbeek, D. D. Margulies, E. M. Shevach, and W. Strober (eds.), Current Protocols in Immunology, pp. 7.27.1. New York: Greene Publishing Wiley Interscience). Briefly, 5×10^6 target U87MG.de2-7 and A431 cells were labeled with 50 μCi^51Cr (Geneworks, Adelaide, Australia) per 1×10^6 cells and incubated for 2 hr at 37° C. The cells were then washed three time with PBS (0.05M, pH 7.4) and a fourth wash with culture medium. […]
In the first assay, labelled target cells were plated with the effector cells in 96-well “U” bottom microplates (NUNC, Roskilde, Denmark) at effector/target (E:T) cell ratios of 50:1. […] In both assays, micotitre plates were incubated at 37° C. for 4 hours, then 50 μl supernatant was harvested from each well and released ^51Cr was determined by gamma counting (Cobra II automated Gamma Counter, Canberra Packard, Melbourne, Australia). […]

B1: mAb1133: murine IgG2a monoclonal antibody, clone 1133; VH SEQ ID NO:32, VL SEQ ID NO:37 (antibody, listed as Mus musculus, V domains shown)
VH: DVQLQGSGPSLVKPSQSLSLTCTVTGYSITSDYAWNWIRQFPGNKLEWMGYISYSGNTRYNPSLRSRISITRDTSKNQFFLQLNSVTTEDTATYYCATAGRGFPYWGQGTLVTVSA
VL: DILMTQSPSSMSVSLGDTVNITCHSSQDINSNIGWLQQKPGKSFKGLIYHGTNLDDGVPSRFSGSGSGADYSLTISSLESEDFADYYCVQYGQFPWTFGGGTKLEIKR
As for B1, the “Binding of biotin-labeled 806” value in data set [1] is “None”. In addition, the Immunohistochemical staining result in the data set with xenograft U87MGΔEGFR is given as “pos”; with xenograft A431, “pos. (predominantly basal”.

B2: hu806: humanized (veneered) 806 antibody, human IgG1; SEQ ID NO:42 and SEQ ID NO:47 (antibody, V domains shown)
VH: MDWTWRILFLVAAATGVHSQVQLQESGPGLVKPSQTLSLTCTVSGYSISSDFAWNWIRQPPGKGLEWMGYISYSGNTRYQPSLKSRITISRDTSKNQFFLKLNSVTAADTATYYCVTAGRGFPYWGQGTLVTVSS
VL: MDWTWRILFLVAAATGVHSDIQMTQSPSSMSVSVGDRVTITCHSSQDINSNIGWLQQKPGKSFKGLIYHGTNLDDGVPSRFSGSGSGTDYTLTISSLQPEDFATYYCVQYAQFPWTFGGGTKLEIKR
In the data set on A431 cells, B2 displayed an ADCC cytotoxicity of 30%. Moreover, in the data set on A431 xenografts, the “xenograft growth versus PBS vehicle control” value is recorded as “marked reduction in A431 xenograft growth”.
